Measurements reported in US20200010547A1.

Biological target: CD30 on CD30+ lymphoma cell lines (UniProt P28908)
Assay: cell-based or functional assay

Sequence of UniProt P28908 (P28908 19-595 limits assumed): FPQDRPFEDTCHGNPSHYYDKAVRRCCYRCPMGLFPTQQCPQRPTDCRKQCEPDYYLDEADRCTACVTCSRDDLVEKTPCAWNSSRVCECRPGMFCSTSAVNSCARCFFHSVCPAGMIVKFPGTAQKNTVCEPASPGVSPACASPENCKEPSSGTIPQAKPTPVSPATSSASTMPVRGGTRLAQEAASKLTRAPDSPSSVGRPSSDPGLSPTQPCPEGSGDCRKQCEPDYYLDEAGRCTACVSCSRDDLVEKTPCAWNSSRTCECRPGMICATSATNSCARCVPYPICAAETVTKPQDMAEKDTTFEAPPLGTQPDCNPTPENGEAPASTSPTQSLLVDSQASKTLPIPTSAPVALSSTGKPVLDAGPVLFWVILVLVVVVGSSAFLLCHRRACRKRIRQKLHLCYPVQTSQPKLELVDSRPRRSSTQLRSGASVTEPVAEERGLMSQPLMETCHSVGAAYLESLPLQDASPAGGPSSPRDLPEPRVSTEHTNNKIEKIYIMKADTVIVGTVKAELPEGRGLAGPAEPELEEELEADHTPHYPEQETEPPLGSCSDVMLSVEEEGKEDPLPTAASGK

A specific lysis of CD30+ tumor cells by NK cells, 4-hour 51Cr release assay of 0.001 µg/mL was found for “bispecific tetravalent CD30/CD16A tandem diabody AFM13 (bispecific antibody)” in this work.
